Here are results for 41 sequences from the nanobody polyreactivity screen of Harvey et al. (2022).

This data set can be described thus: yeast display, Sf9 membrane polyspecificity reagent, FACS + sequencing; frameworks hold sequencing errors. A digest of the protocol: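 In a synthetic yeast display library (Saccharomyces cerevisiae BJ5465), nanobody expression was induced with galactose for 36–48 hours. FACS gates were set low and high (top ~1%) using anti-HA fluorescence for expression and streptavidin fluorescence for binding of the Sf9 membrane reagent. Each polyreactivity label is drawn from the gate of origin.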
“QVQLVESGGGLVQAGGSLRLSCAAYGSIFSGYTMGCYRQAPGKERELVAAITQRGTRTYYADSVKGRFTISRDNAKNTVYLQMNSLKPEDTAVYYCAAVRSYYSNRGYDYWGQGTQVTVSS”: the “polyreactivity (PSR sort gate)” value is given as “high polyreactivity”.

On to “QVQLVESGGGLVQAGGSLRLSCAAYGSIFTRNAMGWYRQAPGKERELVATITSNDGSTNYADSVKGRFTISRDNAKNTVYLQMISLKPEDTAVYYCNRSYGVYSEFDYWGQGTQVTVSS”, for which the “polyreactivity (PSR sort gate)” value is reported as “low polyreactivity”. For “QVQLVESGGGLVQAGGSLRLSCAAYGSILARYAMGWYRQAPGKERELVAAISYNGGSTYYADSVKGRFTISRDNAKNTVYLQMNSLKPEDTAVYYCAKAYDTTLTYNFWGQGTQVTVSS” the value was “low polyreactivity”. In the case of “QVQLVESGGGLVQAGGSLRLSCAAYGSNLTWNDMGWYRQAPGKERELVAAIDVNDGSTYYADSVKGRFTISRDNAKNTVYLQMNRLKPEDTAVYYCAEPTDYTWLDSTLADDYWGQGTQVTVSS”, the “polyreactivity (PSR sort gate)” value is on record as “low polyreactivity”. The same measure for “QVQLVESGGGLVQAGGSLRLSCAAYGSTFHYYSMGWYRQAPGKERELVAAISSSGVSTYYADSVKGRFTISRDYAKNTVYLQMNSLKPEDTAVYYCNRASVFHYRWYYYWGLGTQVTVSS”: “high polyreactivity”; for “QVQLVESGGGLVQAGGSLRLSCAAYGSTFYAYAMGWYRQAPGKERELVAAIDSGGSTYYADSVKGRFTISRDNAKNTVYLQMNSLKPEDTAVYYCAVRHRYTRAYWGRDYWGQGTQVTVSS”: “low polyreactivity”. The same measure for “QVQLVESGGGLVQAGGSLRLSCAAYGSTFYHKAMGWYRQAPGKERELVARITRGGSTDYADSVKGRFTISRDNAKNTVYLQMNSRKPEDTAVYYCAAAIGHFERFYWGQGTQVTVSS”: “low polyreactivity”. The same measure for “QVQLVESGGGLVQAGGSLRLSCAAYGSTFYVYAMGWYRQAPGKESELVAAITSAGSTNYADSVKGRFTISRDNAKYTVYLQMNSLKPEDTAVYYCAVYFDTFYGHMYYWGQCTQVTVSS”: “low polyreactivity”; for “QVQLVESGGGLVQAGGSLRLSCAAYSYVMGGYRQAPGKERELVAAISQSGGSTYYADSVKGRFTISRDNAKNTVYLQMNTLKPEDTAVYYCAASYQVRYDYWGQGTQVTVSS”: “high polyreactivity”. Consider “QVQLVESGGGLVQAGGSLRLSCAAYSYVMGWYRQAPGKERELVAAISQSGGSTYYADSVKGRFTISRDNAKNTVYLQMNSLKPEDTAVYYCAARREPYQYNQYYSWGQGTQVTVSS”, for which the “polyreactivity (PSR sort gate)” value is “high polyreactivity”.

In the case of “QVQLVESGGGLVQAGGSLRLSCACSGSTFRWYTMGWYRQAPGKECELVAAISISGTSTYYADSVNGRFTISRDNAKNTVYLQMNSLTPEDTAVYYCAADPPSRWGDYWGQGTQVTVSS”, the “polyreactivity (PSR sort gate)” value is “high polyreactivity”. For “QVQLVESGGGLVQAGGSLRLSCADSGFIFSHNVMGWYRQAPGKERELVAAISASGGSTYYADSVKGRFTISRDNAKNTVYLQMNSLKPEDTAVYYCAKVTWGTVWYRSPSEYDYWGQGTQVTVSS”, the “polyreactivity (PSR sort gate)” value is “low polyreactivity”. The same measure for “QVQLVESGGGLVQAGGSLRLSCADSGFIFTPYTMGWYRQAPGKERELVAAITDGSSTYYADSVKGRFTISRDNAKYTVYLQINSLKPEDTAVYYCNADGKPPYISWLYDYWGQGTQVTVSS”: “low polyreactivity”; for “QVQLVESGGGLVQAGGSLRLSCADSGFISDWYAMGWYRQAPGKERELVATIDWIGGSTYADSVKGRFTISRDNAKNTVYLQMNSMKPEDTAVYYCNAYAFDSVREEDYWGQGTQVTVSS”: “low polyreactivity”.

For “QVQLVESGGGLVQAGGSLRLSCADSGFTFSWYTMGWYRQAPGKERELVAAITVSGGSTYYADSVKGRFTISRDYAKNTVYLQMNSLKPEDTAVYYCNAQDPFTYYSSSPTYDYWGQGTQVTVSS”, the “polyreactivity (PSR sort gate)” value is recorded as “low polyreactivity”. For “QVQLVESGGGLVQAGGSLRLSCADSGFTFYTYTMGWYRPAPGKERELVAVISRSGGSTYYADSVKGRFTISRDNAKNTVYLQMNSVKPEDTAVYYCNAGYWRFIDSYDYWGQGTQVTVSS” the value was “high polyreactivity”. For “QVQLVESGGGLVQAGGSLRLSCADSGGTFGYYVMGWNRQAPGKERELVAAITSGGSTKYADSVKGRFTISRDNAKNTVYLQMNSLKPEDTAVYYCAADYPYYPFSSIYDYWGQGTQVTVSS” the value was “low polyreactivity”; for “QVQLVESGGGLVQAGGSLRLSCADSGIIFAYYAMGWYRQAPGKERELVAAITGGGVRTYYADSVKGRFTISRDNAKNTVYLQMNSLKPEDTAVYDCIATGSTASGRVNYWGQGTQVTVSS”, “high polyreactivity”; for “QVQLVESGGGLVQAGGSLRLSCADSGIIFAYYDMGWYRQAPGKERELVASISSTGGSTYYADSVKGRFTISSDNAKNTVYLQMNSLKPEDTAVYYCAVDGLPPKDALHLYYYWGQGTQVTVSS”, “low polyreactivity”. For the sequence “QVQLVESGGGLVQAGGSLRLSCADSGIIFRYYSMGWYRQAPGKESEFVAAITGSSGSTYADSVKGRFTISRDNAKNTVYLQMNSLKPEDTAVYYCNADSYSIWVYGEYDYWGLGTQVTVSS”, the “polyreactivity (PSR sort gate)” value is on record as “high polyreactivity”. Consider “QVQLVESGGGLVQAGGSLRLSCADSGIIFWRYAMGWYRQAPGKERELVATITSGGSTDYADSVKGRFTISRDNAKNTVYLQMNSLKPEDTAVYYCAALGYATGYWRYYYWGQGTQVTVSS”, for which the “polyreactivity (PSR sort gate)” value is reported as “low polyreactivity”. Consider “QVQLVESGGGLVQAGGSLRLSCADSGITFAPYAMGWSRQAPGKERELVATITWSGGSTYYADSVKGRFTISRDNAKNTVYLQMNSLKPEDTAVYYCAAYNDTVPSAAHIYESWGQGTQVTVSS”, for which the “polyreactivity (PSR sort gate)” value is given as “low polyreactivity”. For “QVQLVESGGGLVQAGGSLRLSCADSGITFGVYAMGWYRQAPGKERELVAAISRRGASTYYADSVKGRFTISRDNAKNTVYLQMNSLKPEDTAVYYCAAYLARRQYDYWGQGTQVTVSS” the value was “high polyreactivity”.

Consider “QVQLVESGGGLVQAGGSLRLSCADSGITFSDYAMGWYRQAPGKERELVAAISARGGSTYYADSVKGRFTISRDNAKNTVYLQMNSLKPEDTAVYYCAADKRTPYYSRAGMDYWGQGTQVTVSS”, for which the “polyreactivity (PSR sort gate)” value is on record as “low polyreactivity”. For “QVQLVESGGGLVQAGGSLRLSCADSGLIFGRNAMGWYRQAPGKERELVAAITSGGSTYYADSVKGRFTISRDNAKNTVYLQRNSLKPEDTAVYYCAADVVDLYLLDYWGQGTQVTVSS” the value was “low polyreactivity”.

On to “QVQLVESGGGLVQAGGSLRLSCADSGLIFKYYAMGWYRQAPGKERELVAVITSSGGSTYYADSVKGRFTISRDNAKNTVYLQMNSLKPEDTAVYYCAARRVRWPYDYWGQGTQVTVSS”, for which the “polyreactivity (PSR sort gate)” value was “high polyreactivity”.

For the sequence “QVQLVESGGGLVQAGGSLRLSCADSGLIFWAYAMGWYRQEPGTERELVAAINWRGGSTYYADSVKGRFTISRDTAKNTVYLQMNSLKPEDTAVYYCAADSYYDEYDYWGQGTQVTVSS”, the “polyreactivity (PSR sort gate)” value is reported as “low polyreactivity”. “QVQLVESGGGLVQAGGSLRLSCADSGLTFGSNGMGWYRQAPGKERELVAAISRGGSTSYAVSVKGRFTISRDNAKNTVYLQMNSLKPEDTAVYYCAARSYRYSYRYRAFDYWGQGSQVTVSS”: the “polyreactivity (PSR sort gate)” value is given as “high polyreactivity”. “QVQLVESGGGLVQAGGSLRLSCADSGLTFWAYAMGWYRQAPGKARELVAGISSGVSTYYADSVKGRFTISRDNAKNTFYLQMNSLKPEDTEVYYCAAYVYTWYYYDVGYWGQGTQVTVSS”: the “polyreactivity (PSR sort gate)” value is given as “high polyreactivity”.

Consider “QVQLVESGGGLVQAGGSLRLSCADSGQNAMGWYRQAPGKERELVAAISRGGDSTYYADSVKGRFTISRDNAKNSVYLQMNSLKPEDTAVYYCAASYYRRYGYNYWGQGTQVTVSS”, for which the “polyreactivity (PSR sort gate)” value is given as “high polyreactivity”. Consider “QVQLVESGGGLVQAGGSLRLSCADSGRHFSFNMGWYRQAPGKERELVAAISRRGGSTYYADSVKGRFTISRDNAKNTVYLQMNSLKPEYTAVYYCAVIPRQTYSGGGYDYWGQGTQVTVSS”, for which the “polyreactivity (PSR sort gate)” value is “high polyreactivity”. Regarding “QVQLVESGGGLVQAGGSLRLSCADSGRIFDFNAMGWYRQAPGKERELVASIDWSGGNTYYADSVKGRFTISRDNAKNTVYVQMNSLKPEDTAVYYCNRDFWGVWEYDYWGQGTQVTVSS”, the “polyreactivity (PSR sort gate)” value is “low polyreactivity”. Consider “QVQLVESGGGLVQAGGSLRLSCADSGRIFFKYAMGWYRQAPGKERELVASISRRGGSTTYADSVKGRFTISRDNAKNTVYLQMNSLKPEDTAVYYCNTVSWWGRNYQDEYYYWGQGTQVTVSS”, for which the “polyreactivity (PSR sort gate)” value was “high polyreactivity”. Regarding “QVQLVESGGGLVQAGGSLRLSCADSGRIFGPYAMGWYRQAPGKERELVAAISGGGRTDYADSVKGRFTISRDNAKNTVYLQMNSLKPEDTAVYYCNADYTYWNGWFATRDYWGQGTQVTVSS”, the “polyreactivity (PSR sort gate)” value is given as “low polyreactivity”. In the case of “QVQLVESGGGLVQAGGSLRLSCADSGRIFRGNGMGWSRQAPGKEREFVDAISRGDGNTYYADSVKGRFTISRDNAKNTVYLQMNSLKPEDTAVYSCAAGGYGYYDFPQYNYWGQGTQVTVSS”, the “polyreactivity (PSR sort gate)” value is listed as “low polyreactivity”.

Regarding “QVQLVESGGGLVQAGGSLRLSCADSGRTFGPYAMGWYRQAPGKERELVAAITSSGGSTYYADSVKGRFTISRDNAKNTVSLQMNSLKPEDTAVYYCNKLYWRQSQDYDYWGQGTQVTVSS”, the “polyreactivity (PSR sort gate)” value is listed as “low polyreactivity”. For the sequence “QVQLVESGGGLVQAGGSLRLSCADSGRTIYRNGMGWYRKAPGKEREFVAAINYRGGSTNYADSVKWRFTISRDKAKNTVYLQMNSLKPEDTAVYYCATRIFRAALRFDYWGQGTQVTVSS”, the “polyreactivity (PSR sort gate)” value is “high polyreactivity”. As to “QVQLVESGGGLVQAGGSLRLSCADSGSIFDGNAMGWYRQAPGKERALVAAISRRGGSTYYADSVKGRFTISRDKAKNTVYLQMNSLKPEDTAVYYCNAYLSYFDGNYWGQGTQVTVSS”, the “polyreactivity (PSR sort gate)” value was “high polyreactivity”.

For the sequence “QVQLVESGGGLVQAGGSLRLSCADSGSIFDVNVMGWYRQAPAKERELVASINISGASTYYADSVKGRLTISRDNAKNTVSLQMNSLKPEDTAVYYCAGTYGVPSFRYGYWGQGTQVTVSS”, the “polyreactivity (PSR sort gate)” value is given as “low polyreactivity”. On to “QVQLVESGGGLVQAGGSLRLSCADSGSIFPFYAMGWYRQAPGKERELVASISSGGSTNYADSVKGRFTISRDNAKKTVYLQMNSLKPEDTAVYYCNAVGTFVRYGTDGRDGVNYDYWGQGTQVTVSS”, for which the “polyreactivity (PSR sort gate)” value is “low polyreactivity”. For “QVQLVESGGGLVQAGGSLRLSCADSGSIFQYYVRGCYRQAPGKERELVAAIRRSGTTYYADSVKGRFTISRDNAKNTVYLQMNSLKTEDTAVDYCNKVRCQEPSNYDYWVQGTQVTVSS” the value was “low polyreactivity”.
